From PMC12621184, “Synthesis and Pharmacological Characterization of Nociceptin/Orphanin FQ Dimeric Ligands” (Journal of Medicinal Chemistry, 2025)
Bridge positions count the residues as written; N and C are the ends. Ends that are not written are not given here. Peptide text beside a SMILES is read from it. I, II: the chains in the order shown.

How the values were obtained:
[1] = target: T1, human NOP (Homo sapiens, UniProt P41146); experiment: Calcium mobilization assay, CHO cells with NOP receptor and chimeric G protein; format: cell-based; set-up: expressed in transfected cells; conditions: for EC50: CHO cells coexpressing human NOP and Gαqi5, Fluo-4, 37 °C, mean (CL95%), N = 5 experiments in duplicate, read-out: Ca^2+ mobilization pEC50 (CL95%) (converted); for Ca^2+ mobilization E max ± sem: CHO cells coexpressing human NOP and Gαqi5, maximum change in percentage over baseline fluorescence, mean ± sem, N = 5 in duplicate
T1 sequence (P41146 whole entry): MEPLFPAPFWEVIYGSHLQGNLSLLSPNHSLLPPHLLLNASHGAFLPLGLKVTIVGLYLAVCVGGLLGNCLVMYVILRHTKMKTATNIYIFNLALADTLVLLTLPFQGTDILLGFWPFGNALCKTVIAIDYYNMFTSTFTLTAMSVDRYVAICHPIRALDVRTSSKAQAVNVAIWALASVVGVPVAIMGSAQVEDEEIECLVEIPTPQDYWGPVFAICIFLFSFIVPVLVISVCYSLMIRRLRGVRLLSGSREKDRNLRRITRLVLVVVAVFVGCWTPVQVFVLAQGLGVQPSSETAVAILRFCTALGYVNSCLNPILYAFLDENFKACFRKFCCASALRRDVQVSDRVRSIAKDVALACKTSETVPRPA
Protocol: Chinese hamster ovary (CHO) cells stably coexpressing the human NOP, μ, or κ opioid receptors and the Gαqi5 protein or the human δ and the GαqG66Di5 protein were used in this assay. , Cells were cultured in DMEM/F-12 (1:1) medium supplemented with 10% FBS, 2 mM L-glutamine, […], 100 IU/mL penicillin, and 100 IU/mL streptomycin. Cells were maintained at 37 °C in a humidified atmosphere with 5% CO2 and were seeded at 50 000 cells/well into 96-well black, clear-bottom plates 24 h before test. Loading for 45 min with a solution consisting of HBSS supplemented with 2.5 mM probenecid, 3 μM Fluo-4 AM, and 0.01% pluronic acid ensures the calcium-sensitive dye (Fluo-4) reaches the needed concentration inside the cell, while the exchange of the solution with 100 μL/well of buffer consisting of HBSS with 20 mM HEPES, 2.5 mM probenecid, and 500 μM Brilliant Black allows for fluorescence background to decrease. Serial dilutions of ligands were prepared in HBSS buffer with 20 mM HEPES and 0.02% bovine serum albumin (BSA) to minimize the ligands’ stickiness to plasticware. The automated microplate reader FlexStation II (Molecular Devices, CA, US) was employed at 37 °C to detect changes in fluorescence intensity. The effects of all compounds were expressed as the maximum change in percentage over the baseline fluorescence measured in samples treated with vehicles.
(§1) Concentration-response curves to agonists were analyzed by a four-parameter logistic nonlinear regression model: Effect = baseline + (E max – baseline)/(1 + 10^((logEC50–log[ligand])slope)). […] Experimental data were expressed as mean ± sem of at least 5 experiments. Potency values were expressed as the mean and CL95%. In vitro E max values were analyzed by one-way ANOVA, while in vivo latency data were evaluated by one-way ANOVA followed by Dunnett’s post hoc test. The proportion of mice losing the righting reflex was compared by Fisher’s exact test performed on raw data. GraphPad Prism 10.0 software was used for all of the analyses. The terminology employed is consistent with the International Union of Basic and Clinical Pharmacology (IUPHAR) recommendations. ,

[2] = target: T1, human NOP; experiment: NOP receptor–G protein interaction BRET assay; format: biochemical; set-up: expressed in transfected cells; host or cells: membranes of HEK293 cells stably coexpressing NOP-RLuc and Gβ1-RGFP; conditions: N = 5 experiments in duplicate; for EC50: membranes from HEK293 cells coexpressing NOP-RLuc and Gβ1-RGFP, room temperature, mean (CL95%), read-out: NOP–G protein interaction pEC50 (CL95%) (converted)
Protocol: A BRET interaction assay was used, as previously detailed in ref , to study the propensity of ligands to evoke interaction between the NOP receptor and to G protein. Membranes taken from HEK293 cells stably coexpressing the fusoproteins NOP-RLuc and Gβ1-RGFP were used. Such cells were grown in DMEM medium supplemented with 10% FBS, 2 mM L-glutamine, […] G418, […] hygromycin B, 100 IU/mL penicillin, and 100 IU/mL streptomycin in a humidified atmosphere with 5% CO2 at 37 °C. Cell membranes were thawed and resuspended in PBS supplemented with 0.01% BSA before the assay, and an amount of 3 μg of total protein was dispensed in each of the 96 wells together with 2 μM Prolume Purple Coelenterazine. All experiments were carried out at room temperature. Ligands were added, and averaged BRET ratios from 10 min measurements were computed. BRET ratios were computed as counts per second (CPS) obtained on a Victor Nivo (PerkinElmer) with 405 (10) nm and 510 (30) nm bandpass filters. Vehicles’ BRET ratios were derived from light passed through 510 divided by that passed through 405 filters. Vehicles BRET values were subtracted from all computations, and data sets were normalized as a fraction of N/OFQ maximal effects.
as §1

[3] = target: NOP-RLuc (UniProt P41146); conditions: for E max, NOP–G protein interaction (BRET), normalised to N/OFQ-NH2 (E max = 1): scale: fraction of the maximal effect of N/OFQ-NH2
Chain of NOP-RLuc (P41146 whole entry): as above

[4] = target: human nociceptin/orphanin FQ (N/OFQ) peptide receptor (human) (UniProt P41146)
Chain of human nociceptin/orphanin FQ (N/OFQ) peptide receptor (human) (P41146 whole entry): as above

CC(C)C[C@H](NC(=O)[C@H](CCCCN)NC(=O)[C@H](CSSC[C@H](NC(=O)[C@H](C)NC(=O)[C@H](CO)NC(=O)[C@H](CCCCN)NC(=O)[C@H](CCCNC(=N)N)NC(=O)[C@H](C)NC(=O)CNC(=O)[C@@H](NC(=O)[C@H](Cc1ccccc1)NC(=O)CNC(=O)CNC(=O)[C@@H](N)Cc1ccccc1)[C@@H](C)O)C(=O)N[C@@H](CCCCN)C(=O)N[C@@H](CC(C)C)C(=O)N[C@@H](C)C(=O)N[C@@H](CC(N)=O)C(=O)N[C@@H](CCC(N)=O)C(N)=O)NC(=O)[C@H](C)NC(=O)[C@H](CO)NC(=O)[C@H](CCCCN)NC(=O)[C@H](CCCNC(=N)N)NC(=O)[C@H](C)NC(=O)CNC(=O)[C@@H](NC(=O)[C@H](Cc1ccccc1)NC(=O)CNC(=O)CNC(=O)[C@@H](N)Cc1ccccc1)[C@@H](C)O)C(=O)N[C@@H](C)C(=O)N[C@@H](CC(N)=O)C(=O)N[C@@H](CCC(N)=O)C(N)=O [1f, [[Cys^12]N/OFQ-NH2]2] (I: H-FGGFTGARKSACKLANQ-NH2 / II: H-FGGFTGARKSACKLANQ-NH2; disulfide I:12-II:12)
EC50 [1]: 3.02 nM
Ca^2+ mobilization E max ± sem [1]: 346 ± 19 % over the baseline
NOP–G protein interaction E max ± sem ([2]; effects normalized to N/OFQ-NH2 (E max = 1), mean ± sem): 1.07 ± 0.12
EC50 [2]: 1.26 nM

CC(C)C[C@H](NC(=O)[C@H](CSSC[C@H](NC(=O)[C@H](CCCNC(=N)N)NC(=O)[C@H](C)NC(=O)[C@H](CO)NC(=O)[C@H](CCCCN)NC(=O)[C@H](CCCNC(=N)N)NC(=O)[C@H](C)NC(=O)CNC(=O)[C@@H](NC(=O)[C@H](Cc1ccccc1)NC(=O)CNC(=O)CNC(=O)[C@@H](N)Cc1ccccc1)[C@@H](C)O)C(=O)N[C@@H](CC(C)C)C(=O)N[C@@H](C)C(=O)N[C@@H](CC(N)=O)C(=O)N[C@@H](CCC(N)=O)C(N)=O)NC(=O)[C@H](CCCNC(=N)N)NC(=O)[C@H](C)NC(=O)[C@H](CO)NC(=O)[C@H](CCCCN)NC(=O)[C@H](CCCNC(=N)N)NC(=O)[C@H](C)NC(=O)CNC(=O)[C@@H](NC(=O)[C@H](Cc1ccccc1)NC(=O)CNC(=O)CNC(=O)[C@@H](N)Cc1ccccc1)[C@@H](C)O)C(=O)N[C@@H](C)C(=O)N[C@@H](CC(N)=O)C(=O)N[C@@H](CCC(N)=O)C(N)=O [1g, [[Cys^13]N/OFQ-NH2]2] (I: H-FGGFTGARKSARCLANQ-NH2 / II: H-FGGFTGARKSARCLANQ-NH2; disulfide I:13-II:13)
EC50 [1]: 1.62 nM
Ca^2+ mobilization E max ± sem [1]: 247 ± 39 % over the baseline
EC50 [2]: 0.302 nM

CC(C)C[C@H](NC(=O)[C@H](CCCCN)NC(=O)[C@H](CCCNC(=N)N)NC(=O)[C@H](C)NC(=O)[C@H](CO)NC(=O)[C@H](CCCCN)NC(=O)[C@H](CSSC[C@H](NC(=O)[C@H](C)NC(=O)CNC(=O)[C@@H](NC(=O)[C@H](Cc1ccccc1)NC(=O)CNC(=O)CNC(=O)[C@@H](N)Cc1ccccc1)[C@@H](C)O)C(=O)N[C@@H](CCCCN)C(=O)N[C@@H](CO)C(=O)N[C@@H](C)C(=O)N[C@@H](CCCNC(=N)N)C(=O)N[C@@H](CCCCN)C(=O)N[C@@H](CC(C)C)C(=O)N[C@@H](C)C(=O)N[C@@H](CC(N)=O)C(=O)N[C@@H](CCC(N)=O)C(N)=O)NC(=O)[C@H](C)NC(=O)CNC(=O)[C@@H](NC(=O)[C@H](Cc1ccccc1)NC(=O)CNC(=O)CNC(=O)[C@@H](N)Cc1ccccc1)[C@@H](C)O)C(=O)N[C@@H](C)C(=O)N[C@@H](CC(N)=O)C(=O)N[C@@H](CCC(N)=O)C(N)=O [1b, [[Cys^8]N/OFQ-NH2]2] (I: H-FGGFTGACKSARKLANQ-NH2 / II: H-FGGFTGACKSARKLANQ-NH2; disulfide I:8-II:8)
EC50 [1]: 43.7 nM
Ca^2+ mobilization E max ± sem [1]: 322 ± 20 % over the baseline
EC50 [2]: 9.12 nM

FGGFTGARKCARKLANQ-NH2 (also: homodimer: Cys10-Cys10 disulfide to second copy) [[[Cys^10]N/OFQ-NH2]2]
pEC50, NOP–G protein interaction (BRET, membranes of HEK293 cells with NOP-RLuc and Gβ1-RGFP) [3]: 9.85 pEC50
E max, NOP–G protein interaction (BRET), normalised to N/OFQ-NH2 (E max = 1) [3]: 1.07
E max, Ca^2+ mobilization in CHO cells with human NOP and Gαqi5 (% over baseline) [4]: 305
pEC50, Ca^2+ mobilization in CHO cells with human NOP and Gαqi5 [4]: 8.72 pEC50

FGGFTGARKSARKLACQ-NH2 (also: homodimer: Cys16-Cys16 disulfide to second copy) [[[Cys^16]N/OFQ-NH2]2]
pEC50, NOP–G protein interaction (BRET, membranes of HEK293 cells with NOP-RLuc and Gβ1-RGFP) [3]: 9.76 pEC50
E max, NOP–G protein interaction (BRET), normalised to N/OFQ-NH2 (E max = 1) [3]: 0.98
E max, Ca^2+ mobilization in CHO cells with human NOP and Gαqi5 (% over baseline) [4]: 312
pEC50, Ca^2+ mobilization in CHO cells with human NOP and Gαqi5 [4]: 8.86 pEC50

FGGFTGARCSARKLANQ-NH2 (also: homodimer: Cys9-Cys9 disulfide to second copy) [[[Cys^9]N/OFQ-NH2]2]
pEC50, NOP–G protein interaction (BRET, membranes of HEK293 cells with NOP-RLuc and Gβ1-RGFP) [3]: 8.87 pEC50
E max, NOP–G protein interaction (BRET), normalised to N/OFQ-NH2 (E max = 1) [3]: 1.03
E max, Ca^2+ mobilization in CHO cells with human NOP and Gαqi5 (% over baseline) [4]: 289
pEC50, Ca^2+ mobilization in CHO cells with human NOP and Gαqi5 [4]: 8.3 pEC50

FGGFTGCRKSARKLANQ-NH2 (also: homodimer: Cys7-Cys7 disulfide to second copy) [[[Cys^7]N/OFQ-NH2]2]
pEC50, NOP–G protein interaction (BRET, membranes of HEK293 cells with NOP-RLuc and Gβ1-RGFP) [3]: 8.71 pEC50
E max, NOP–G protein interaction (BRET), normalised to N/OFQ-NH2 (E max = 1) [3]: 1.09
E max, Ca^2+ mobilization in CHO cells with human NOP and Gαqi5 (% over baseline) [4]: 293
pEC50, Ca^2+ mobilization in CHO cells with human NOP and Gαqi5 [4]: 7.57 pEC50

FGGFTGARKSARCLANQ-NH2 (also: homodimer: Cys13-Cys13 disulfide to second copy) [[[Cys^13]N/OFQ-NH2]2]
pEC50, NOP–G protein interaction (BRET, membranes of HEK293 cells with NOP-RLuc and Gβ1-RGFP) [3]: 9.52 pEC50
E max, NOP–G protein interaction (BRET), normalised to N/OFQ-NH2 (E max = 1) [3]: 0.84
E max, Ca^2+ mobilization in CHO cells with human NOP and Gαqi5 (% over baseline) [4]: 247
pEC50, Ca^2+ mobilization in CHO cells with human NOP and Gαqi5 [4]: 8.79 pEC50

FGGFTGACKSARKLANQ-NH2 (also: homodimer: Cys8-Cys8 disulfide to second copy) [[[Cys^8]N/OFQ-NH2]2]
pEC50, NOP–G protein interaction (BRET, membranes of HEK293 cells with NOP-RLuc and Gβ1-RGFP) [3]: 8.04 pEC50
E max, NOP–G protein interaction (BRET), normalised to N/OFQ-NH2 (E max = 1) [3]: 1.04
E max, Ca^2+ mobilization in CHO cells with human NOP and Gαqi5 (% over baseline) [4]: 322
pEC50, Ca^2+ mobilization in CHO cells with human NOP and Gαqi5 [4]: 7.36 pEC50

FGGFTGARKSACKLANQ-NH2 (also: homodimer: Cys12-Cys12 disulfide to second copy) [[[Cys^12]N/OFQ-NH2]2]
pEC50, NOP–G protein interaction (BRET, membranes of HEK293 cells with NOP-RLuc and Gβ1-RGFP) [3]: 8.9 pEC50
E max, NOP–G protein interaction (BRET), normalised to N/OFQ-NH2 (E max = 1) [3]: 1.07
E max, Ca^2+ mobilization in CHO cells with human NOP and Gαqi5 (% over baseline) [4]: 346
pEC50, Ca^2+ mobilization in CHO cells with human NOP and Gαqi5 [4]: 8.52 pEC50

FGGFTGARKSARKLCNQ-NH2 (also: homodimer: Cys15-Cys15 disulfide to second copy) [[[Cys^15]N/OFQ-NH2]2]
pEC50, NOP–G protein interaction (BRET, membranes of HEK293 cells with NOP-RLuc and Gβ1-RGFP) [3]: 9.71 pEC50
E max, NOP–G protein interaction (BRET), normalised to N/OFQ-NH2 (E max = 1) [3]: 0.95
E max, Ca^2+ mobilization in CHO cells with human NOP and Gαqi5 (% over baseline) [4]: 297
pEC50, Ca^2+ mobilization in CHO cells with human NOP and Gαqi5 [4]: 8.53 pEC50
